Results: US20170313746
“Also recorded” adds a separate entry of the source.

Tests used:
Ac-DEVD-CHO = target: T1, Ac-DEVD-CHO
T1 chain: DEVD

[1] = target: T2, HILR-030 (cyclo-[Pro-Arg-Gly-Pro-Arg-Pro-Val-Trp-Trp-Gpa-Gpa-Trp-Trp-Gpa-Gpa-Trp-Trp])
T2 chain: PRGPRPVWWXXWWXXXW

B1: recombinant human caspase 3 enzyme (protein)
chain: SGISLDNSYKMDYPEMGLCIIINNKNFHKSTGMTSRSGTDVDAANLRETFRNLKYEVRNKNDLTREEIVELMRDVSKEDHSKRSSFVCVLLSHGEEGIIFGTNGPVDLKKITNFFRGDRCRSLTGKPKLFIIQACRGTELDCGIETDSGVDDDMACHKIPVEADFLYAYSTAPGYYSWRNSKDGSWFIQSLCAMLKQYADKLEFMHILTRVNRKVATEFESFSFDATFHAKKQIPCIVSMLTKELYFYH
**Q.** With B1 as the protein, how does the “caspase-3 activity (Apo-ONE Homogeneous Caspase-3/7 assay, cleavage of Z-DEVD-R110)” value (Ac-DEVD-CHO) read?
**A.** Its value is “inhibited the activity of caspase-3 in a dose-dependent manner, giving rise to IC50s within the expected range; also recorded: inhibited the caspase-3 activity in a dose-dependent fashion”.

**Q.** And the “caspase-3 activity (Apo-ONE Homogeneous Caspase-3/7 assay, cleavage of Z-DEVD-R110)” value [1]?
**A.** The value was “inhibited the caspase-3 activity in a dose-dependent fashion”.
